# Measured values as given in patent US20250043019A1 (Janssen / Centocor, published 2025).
# T1: human CD79b and CD20 co-expressed on the surface of B-lymphoma cell lines or primary B cells (human, UniProt P11836 1-297)
# T1 sequence 1: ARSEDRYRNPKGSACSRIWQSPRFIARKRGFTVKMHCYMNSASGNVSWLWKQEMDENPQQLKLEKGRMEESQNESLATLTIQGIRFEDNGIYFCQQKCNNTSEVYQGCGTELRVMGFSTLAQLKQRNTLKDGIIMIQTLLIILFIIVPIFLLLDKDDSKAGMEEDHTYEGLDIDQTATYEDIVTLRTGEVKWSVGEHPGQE
# T1 sequence 2: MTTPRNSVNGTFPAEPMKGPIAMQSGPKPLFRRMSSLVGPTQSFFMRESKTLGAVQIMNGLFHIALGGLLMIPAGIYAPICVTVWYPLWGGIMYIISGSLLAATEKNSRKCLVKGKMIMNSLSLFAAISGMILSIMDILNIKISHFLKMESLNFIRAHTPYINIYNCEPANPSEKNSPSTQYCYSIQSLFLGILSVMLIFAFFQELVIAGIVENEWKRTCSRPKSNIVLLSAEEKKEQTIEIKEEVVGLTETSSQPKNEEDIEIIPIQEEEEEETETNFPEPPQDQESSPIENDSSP
# T2: recombinant extracellular domain of human CD79b, short isoform (human, UniProt P40259 29-159)
# T2 chain: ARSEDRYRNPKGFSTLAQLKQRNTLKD
# T3: recombinant extracellular domain of human CD79b, long isoform (human, UniProt P40259 29-159)
# T3 construct: also called hu CD79b long
# T3 sequence: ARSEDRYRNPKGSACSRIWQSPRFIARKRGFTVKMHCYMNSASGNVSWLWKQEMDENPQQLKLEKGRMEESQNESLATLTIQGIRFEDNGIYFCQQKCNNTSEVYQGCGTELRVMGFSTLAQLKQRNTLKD
# T4: human CD20 on the cell surface (human, UniProt P11836 1-297)
# T4 construct: whole, on cells; On B-lymphoma lines, primary B cells, K562 CD20 or HEK293 transfectants; also called MS4A1; B-lymphocyte antigen CD20
# T4 sequence (looked up): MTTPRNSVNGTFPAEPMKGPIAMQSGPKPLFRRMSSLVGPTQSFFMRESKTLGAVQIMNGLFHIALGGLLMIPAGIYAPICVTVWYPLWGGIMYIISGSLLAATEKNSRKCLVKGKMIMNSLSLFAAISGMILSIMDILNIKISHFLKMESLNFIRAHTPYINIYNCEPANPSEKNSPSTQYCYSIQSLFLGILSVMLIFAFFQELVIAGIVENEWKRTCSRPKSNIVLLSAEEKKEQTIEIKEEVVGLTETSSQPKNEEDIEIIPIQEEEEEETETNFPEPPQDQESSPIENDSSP
# T5: cynomolgus monkey CD20 on B cells (cynomolgus monkey, UniProt M4ZHZ6 1-297)
# T5 construct: whole, on cells
# T5 sequence: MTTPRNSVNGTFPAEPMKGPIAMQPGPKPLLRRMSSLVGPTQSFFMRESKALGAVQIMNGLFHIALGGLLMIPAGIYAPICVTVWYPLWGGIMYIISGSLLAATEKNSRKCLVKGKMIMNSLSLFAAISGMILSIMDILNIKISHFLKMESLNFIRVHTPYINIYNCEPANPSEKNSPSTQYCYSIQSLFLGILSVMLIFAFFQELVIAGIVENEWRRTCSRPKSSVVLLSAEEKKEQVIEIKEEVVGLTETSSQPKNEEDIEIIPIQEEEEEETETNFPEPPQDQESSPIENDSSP
# What was measured:
# [1] = target: T1, human CD79b and CD20 co-expressed on …; test: cell-based or functional assay
# [2] = target: T1, human CD79b and CD20 co-expressed on …; test: cell-based or functional assay; remark: listed apart in the source
# [3] = target: T1, human CD79b and CD20 co-expressed on …; test: cell-based or functional assay; remark: listed apart in the source
# [4] = target: T1, human CD79b and CD20 co-expressed on …; test: cell-based or functional assay; remark: listed apart in the source
# [5] = target: T1, human CD79b and CD20 co-expressed on …; test: cell-based or functional assay; remark: listed apart in the source
# [6] = target: T1, human CD79b and CD20 co-expressed on …; test: cell-based or functional assay; remark: listed apart in the source
# [7] = target: T6, cynomolgus monkey CD79b antigen (cynomolgus monkey); test: SPR Biacore 8k, cyno CD79b injected up to 3000 nM
# T6 construct: also called cyno CD79b; CD9W1.001
# Procedure, shortened: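 Antibodies captured on anti-human Fc C1 chip, CD79b extracellular domain injected in HBSP+ at 25 °C; association 2 or 3 min, dissociation 30 min. Double-referenced sensorgrams fitted to a 1:1 Langmuir model for on-rate, off-rate and affinity.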
# [8] = target: T2, recombinant extracellular domain of …; test: SPR Biacore 8k, antibody captured by anti-Fc, 25 C
# Description: (§1) General Protocol for SPR Affinity Assessment: Affinity assessment of the bispecific trispecific constructs against human CD79b were measure using recombinantly expressed extracellular domain of CD79b short and long isoforms (CD9W7.001 and CD9W8.001, respectively) by Surface Plasmon Resonance (SPR) using a Biacore 8k SPR system (Biacore) at 25° C. in HBSP+ buffer. Cross-reactivity of the same antibody panel was also assessed against cyno and mouse antigens (CD9W1.001 and CD9W105.001, respectively). Briefly, a C1 sensor chip was immobilized with anti-human Fc (target immobilization levels of >400 RU) using vendor recommended amino coupling protocol. […] The association and dissociation phases were measured for 2 or 3 minutes and 30 minutes, respectively.
# (§2) The raw binding sensorgrams were processed using Biacore Insight software (Biacore) by double-referencing and the processed sensorgrams were analyzed for cross-reactivity and fitted to a 1:1 Langmuir model to obtain on-rates, off-rates and affinities.
# [9] = target: T3, recombinant extracellular domain of …; test: SPR Biacore 8k, antibody captured by anti-Fc, 25 C
# Description: as §1, §2
# [10] = target: T1, human CD79b and CD20 co-expressed on …; test: flow cytometry, HBL-1 cells (CD79b+ CD20+), 1 h 37 C
# Description: (§3) All cells were washed with BD stain buffer (BD Biosciences; Cat #554657), centrifuged at 1200 RPM for 3 minutes, with supernatant discarded. Cells were then stained for 20 minutes at 4° C. with BD stain buffer containing AlexaFluor 647 labeled anti-human IgG secondary antibody (Jackson Immuno; Cat #109-606-098) at a 1:200 dilution along with Aqua Fixable Live/Dead stain (Invitrogen; Cat #L34957) at a 1:400 dilution. All cells were washed with BD stain buffer (BD Biosciences; Cat #554657), centrifuged at 1200 RPM for 3 mins, with supernatant discarded. Cells were analyzed using Intellicyt (Sartorius) flow cytometer and mean fluorescent intensity (MFI) was generated using Forcyt software (Sartorius). MFI was graphed and EC50 values generated using GraphPad PRISM v.8. Dose response curves were generated by transforming the x axis values using the formula […]. Data was then graphed using non-linear regression curve fit analysis “log(agonist) vs. response-variable slope (four parameter)”.
# [11] = target: T1, human CD79b and CD20 co-expressed on …; test: flow cytometry, Carnaval cells (CD79b+ CD20+), 1 h 37 C
# Description: as §3
# [12] = target: T1, human CD79b and CD20 co-expressed on …; test: flow cytometry, OCI-LY10 cells (CD79b+ CD20+), 1 h 37 C
# Description: as §3
# [13] = target: T4, human CD20 on the cell surface; test: flow cytometry, human B cells
# [14] = target: T5, cynomolgus monkey CD20 on B cells; test: flow cytometry, cynomolgus B cells
Binder,"IC50, T-cell killing of HBL-1 (Incucyte) [1]","IC50, T-cell killing of OCI-Ly10 (Incucyte) [2]","IC50, CARNAVAL killing (Incucyte) [3]","IC50, Daudi killing (Incucyte) [4]","IC50, CARNAVAL killing, 72 h (FACS) [5]","IC50, HBL-1 killing, 72 h (FACS) [5]","IC50, OCI-LY10 killing, 72 h (FACS) [5]","Cmax (maximum cytotoxicity), donor 1 [6]","Cmax (maximum cytotoxicity), donor 2 [6]","Cmax (maximum cytotoxicity), donor 3 [6]","EC50, autologous B-cell depletion, donor 1 [6]","EC50, autologous B-cell depletion, donor 2 [6]",Kd [7],Kd [8],Kd [9],EC50 [10],EC50 [11],EC50 [12],binding result [13],binding result [14]
"C923B74 CD79bxCD20xCD3 trispecific antibody (other, Trispecific IgG1; also called CD9B330-N31S / CD3B2030-N106A-scFv-LH-C20B22) heavy: QVQLQQSGPGLVKPSQTLSLTCAISGDSVSSNSATWNWIRQSPSRGLEWLGRTYYRSKWYNDYTVSVKSRITINPDTSKNQFSLQLNSVTPEDTAVYYCTRVDIAFDYWGQGTLVTVSSASTKGPSVFPLAPSSKSTSGGTAALGCLVKDYFPEPVTVSWNSGALTSGVHTFPAVLQSSGLYSLSSVVTVPSSSLGTQTYICNVNHKPSNTKVDKKVEPKSCDKTHTCPPCPAPEAAGGPSVFLFPPKPKDTLMISRTPEVTCVVVSVSHEDPEVKFNWYVDGVEVHNAKTKPREEQYNSTYRVVSVLTVLHQDWLNGKEYKCKVSNKALPAPIEKTISKAKGQPREPQVYTLPPSREEMTKNQVSLSCAVKGFYPSDIAVEWESNGQPENNYKTTPPVLDSDGSFFLVSKLTVDKSRWQQGNVFSCSVMHEALHNRFTQKSLSLSPGK light: QTVVTQPPSVSEAPRQRVTISCSGSSSNIGNHGVNWYQQLPGKAPKLLIYNDDLLPSGVSDRFSGSTSGTSGSLAISGLQSEDEADYYCAAWDDSLNGVVFGGGTKLTVLGQPKAAPSVTLFPPSSEELQANKATLVCLISDFYPGAVTVAWKADSSPVKAGVETTTPSKQSNNKYAASSYLSLTPEQWKSHRSYSCQVTHEGSTVEKTVAPTECS EIVLTQSPATLSASPGERVTLSCSASSSVSYMNWYQQKPGQAPRRWIYDSSKLASGVPARFSGSGSGRDYTLTISSLEPEDFAVYYCQQWSRNPPTFGGGTKVEIKGGSEGKSSGSGSESKSTGGSQVQLVQSGAEVKKPGSSVKVSCKASGYTFTRSTMHWVKQAPGQGLEWIGYINPSSAYTNYNQKFQGRVTLTADKSTSTAYMELSSLRSEDTAVYYCASPQVHYDYAGFPYWGQGTLVTVSSEPKSSDKTHTCPPCPAPEAAGGPSVFLFPPKPKDTLMISRTPEVTCVVVSVSHEDPEVKFNWYVDGVEVHNAKTKPREEQYNSTYRVVSVLTVLHQDWLNGKEYKCKVSNKALPAPIEKTISKAKGQPREPQVYTLPPSREEMTKNQVSLWCLVKGFYPSDIAVEWESNGQPENNYKTTPPVLDSDGSFFLYSKLTVDKSRWQQGNVFSCSVMHEALHNHYTQKSLSLSPGKGGSEGKSSGSGSESKSTGGSAIQLTQSPSSLSASVGDRVTITCRASSSVSYIHWFQQKPGKAPKPLIYATSNLASGVPSRFSGSGSGTDFTLTISSLQPEDFATYYCQQWTSNPPTFGQGTKLEIKGGSEGKSSGSGSESKSTGGSQVQLVQSGAEVKKPGSSVKVSCKASGYTFTSYNMHWVRQAPGQGLEWMGAIYPGNGDTSYAQKFQGRVTITADKSTSTAYMELSSLRSEDTAVYYCARSTYYGGDWYFNVWGQGTLVTVSS",346 pM,25.6 nM,0.741 nM,0.1 nM,0.35 nM,2.42 nM,24.2 nM,34%,66%,40%,78 nM,23 nM,> 3000 nM,0.39 nM,0.023 nM,52 nM,23 nM,66 nM,–,–
"C20B648 anti-CD20 binder (antibody, V domains shown) VH: QVQLVQSGAEVKKPGSSVKVSCKASGYTFSSYNMHWVRQAPGQGLEWMGAIYPGAGDTSYAQKFQGRVTITADESTSTAYMELSSLRSEDTAVYYCARSNYYGSSGWYFDVWGKGTTVTVSS VL: EIVLTQSPATLSLSPGERATLSCRASLSVSSMHWYQQKPGQAPRLLIYATSNLASGIPARFSGSGSGTDFTLTISSLEPEDFAVYYCQQWIFNPPTFGGGTKVEIK",–,–,–,–,–,–,–,–,–,–,–,–,–,–,–,–,–,–,binds,binds
